Reference: publication PMC12120876

Target: nLUC‐TaWUS‐like‐5D (wheat (Triticum aestivum))
Experiment: split reporter

SnRK1‐4B‐cLUC (natural protein)
luminescence signal, fold over the other three pairs of co-infiltration samples: 5 fold
